The experiment concerns the target T1, murine monoclonal antibody P3.
T1 construct: Murine IgM with kappa light chain from hybridoma ECACC 94113026, coated on the ELISA plate; FR4 segments are printed short; also called Mab P3; MAb P3
Nature of the experiment: ELISA, plate coated with Mab P3, purified chimeric 1E10 detected with goat anti-human antibody-alkaline phosphatase, absorbance at 405 nm. As for the experimental part:
For recombinant MAb 1 E10, Microtiter plates were coated with Mab P3. After washing with PBST (saline phosphate buffered solution containing 0.05% Tween 20), unspecific binding was blockade with bovine sera albumin (BSA) 1% in PBST, incubated for one hour at 37° C.
The wells were washed and incubated for 1 hour at 37° C. with purified recombinant Mab 1E10. The wells were washed with PBST and a goat anti-human antibody conjugated with alkaline phosphatase was added and incubated at 37° C. for one hour. Finally, the wells were washed with PBST and the substrate buffer containing p-nitrophenylphosphate was added.
In general terms: In an ELISA, binding on a coated surface is turned into a signal by an enzyme label.

T1 sequence (VH, as listed by the source, chain 1 of 2): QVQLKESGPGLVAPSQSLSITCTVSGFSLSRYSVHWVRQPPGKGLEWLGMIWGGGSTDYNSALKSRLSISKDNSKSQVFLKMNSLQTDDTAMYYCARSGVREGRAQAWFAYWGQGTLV
T1 sequence (V domain, as listed by the source, chain 2 of 2): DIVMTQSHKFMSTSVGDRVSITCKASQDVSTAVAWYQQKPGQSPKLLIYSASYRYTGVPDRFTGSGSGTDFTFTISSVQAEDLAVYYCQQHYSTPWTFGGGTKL

B1: chimeric Mab 1E10 (antibody, V domains shown)
VH: QVQLQQSGAELVKPGASVKLSCKASGYTFTSYDINWVRQRPEQGLEWIGWIFPGDGSTKYNEKFKGKATLTTDKSSSTAYMQLSRLTSEDSAVYFCAREDYYDNSYYFDYWGQGTTLTV
VL: DIQMTQTTSSLSASLGDRVTISCRASQDISNYLNWYQQKPDGTVKLLIYYTSRLHSGVPSRFSGSGSGTDYSLTISNLEQEDIATYFCQQGNTLPWTFGGGTKLESK
notes: FR4 segments are printed short, so the variable domains may lack their last residues; also called Mab 1E10 chimeric; recombinant MAb 1E10
As for B1, the binding result is “binds”.

For the origin of these results see US20040253233A1 (CENTRO DE INMUNOLOGIA MOLECULAR CIM, published 2004).
